# Substitutions are numbered along the chain they refer to. Numbers in names are those of the source.
# T1: human IL-11Rα (human, UniProt Q14626 23-363, limits assumed)
# T1 construct: Protein coated on ELISA plates and used in solution for BLI; also called hIL-11Rα; hIL-11R
# T1 sequence: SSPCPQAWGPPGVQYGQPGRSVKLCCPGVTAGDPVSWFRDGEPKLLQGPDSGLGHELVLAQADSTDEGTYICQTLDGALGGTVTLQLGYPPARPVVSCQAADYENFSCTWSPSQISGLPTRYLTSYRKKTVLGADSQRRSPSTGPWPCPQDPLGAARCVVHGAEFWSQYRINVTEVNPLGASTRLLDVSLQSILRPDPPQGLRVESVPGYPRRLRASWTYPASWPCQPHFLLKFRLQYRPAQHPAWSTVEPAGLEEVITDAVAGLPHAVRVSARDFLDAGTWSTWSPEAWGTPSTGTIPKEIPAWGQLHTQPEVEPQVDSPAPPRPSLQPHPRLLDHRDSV
# T2: hIL-1 IR (Homo sapiens, UniProt Q14626)
# T2 sequence (Q14626 23-422): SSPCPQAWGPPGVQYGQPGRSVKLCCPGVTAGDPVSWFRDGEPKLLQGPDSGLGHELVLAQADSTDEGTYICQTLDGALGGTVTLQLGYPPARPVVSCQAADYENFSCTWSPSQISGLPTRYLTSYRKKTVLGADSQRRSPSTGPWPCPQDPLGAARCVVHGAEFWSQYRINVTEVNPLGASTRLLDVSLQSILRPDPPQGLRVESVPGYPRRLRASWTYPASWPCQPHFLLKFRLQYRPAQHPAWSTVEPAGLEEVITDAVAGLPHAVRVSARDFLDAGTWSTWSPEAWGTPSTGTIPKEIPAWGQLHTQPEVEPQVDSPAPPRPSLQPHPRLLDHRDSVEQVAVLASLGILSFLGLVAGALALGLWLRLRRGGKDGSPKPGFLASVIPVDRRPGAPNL
# B1: mAb21 (antibody, human IgG4, V domains shown)
# VH: EVQLLESGGGLVQPGGSLRLSCAASGFTFSHYSMTWVRQAPGKGLEWVSSIVPYGDLTQYADSVKGRFTISRDNSKNTLYLQMNSLRAEDTAVYYCAKGPGWGSFDLWGRGTLVTVSS
# VL: DIQMTQSPSSLSASVGDRVTITCQASQDINNYLNWYQQKPGKAPKLLIYDASNLQTGVPSRFSGSGSGTDFTFTISSLQPEDIATYYCQQHESQSPTFGPGTKVDIK
# notes: Expressed as human IgG4 (S228P EU)
# B2: mAb31 (antibody, human IgG4, V domains shown)
# VH: B1 VH with H31V
# VL: B1 VL
# notes: as for B1
# B3: mAb29 (antibody, human IgG4, V domains shown)
# VH: B1 VH with H31S
# VL: B1 VL
# notes: as for B1
# B4: mAb23 (antibody, human IgG4, V domains shown)
# VH: B1 VH with H31K
# VL: B1 VL
# notes: as for B1
# B5: mAb32: anti-IL-11Rα antibody; VH SEQ ID NO: 255, VL SEQ ID NO: 256; heavy chain Kabat position 31 variant of mAb5 (antibody, V domains shown)
# VH: B1 VH with H31Y
# VL: B1 VL
# modifications: mAb32 VH Chain; mAb32 VL Chain
# notes: anti-IL-11Rα antibody; heavy chain Kabat position 31 variant of mAb5
# B6: mAb24: anti-IL-11Rα antibody; VH SEQ ID NO: 239, VL SEQ ID NO: 240; heavy chain Kabat position 31 variant of mAb5 (antibody, V domains shown)
# VH: B1 VH with H31L
# VL: B1 VL
# modifications: mAb24 VH Chain; mAb24 VL Chain
# notes: as for B5
# B7: mAb16: anti-IL-11Rα antibody; VH SEQ ID NO: 223, VL SEQ ID NO: 224; heavy chain Kabat position 31 variant of mAb5 (antibody, V domains shown)
# VH: B1 VH with H31A
# VL: B1 VL
# modifications: mAb16 VH Chain; mAb16 VL Chain
# notes: as for B5
# B8: mAb27: anti-IL-11Rα antibody; VH SEQ ID NO: 245, VL SEQ ID NO: 246; heavy chain Kabat position 31 variant of mAb5 (antibody, V domains shown)
# VH: B1 VH with H31P
# VL: B1 VL
# modifications: mAb27 VH Chain; mAb27 VL Chain
# notes: as for B5
# B9: mAb20: anti-IL-11Rα antibody; VH SEQ ID NO: 231, VL SEQ ID NO: 232; heavy chain Kabat position 31 variant of mAb5 (antibody, V domains shown)
# VH: B1 VH with H31G
# VL: B1 VL
# modifications: mAb20 VH Chain; mAb20 VL Chain
# notes: as for B5
# B10: mAb26: anti-IL-11Rα antibody; VH SEQ ID NO: 243, VL SEQ ID NO: 244; heavy chain Kabat position 31 variant of mAb5 (antibody, V domains shown)
# VH: B1 VH with H31N
# VL: B1 VL
# modifications: mAb23 VH Chain; mAb26 VL Chaim
# notes: as for B5
# B11: mAb28: anti-IL-11Rα antibody; VH SEQ ID NO: 247, VL SEQ ID NO: 248; heavy chain Kabat position 31 variant of mAb5 (antibody, V domains shown)
# VH: B1 VH with H31R
# VL: B1 VL
# modifications: mAb28 VH Chain; mAb28 VL Chain
# notes: as for B5
# B12: mAb25: anti-IL-11Rα antibody; VH SEQ ID NO: 241, VL SEQ ID NO: 242; heavy chain Kabat position 31 variant of mAb5 (antibody, V domains shown)
# VH: B1 VH with H31M
# VL: B1 VL
# modifications: mAb25 VH Chain; mAb25 VL Chain
# notes: as for B5
# B13: mAb17: anti-IL-11Rα antibody; VH SEQ ID NO: 225, VL SEQ ID NO: 226; heavy chain Kabat position 31 variant of mAb5 (antibody, V domains shown)
# VH: B1 VH with H31D
# VL: B1 VL
# modifications: mAb17 VH Chain; mAb17 VL Chain
# notes: as for B5
# B14: mAb22: anti-IL-11Rα antibody; VH SEQ ID NO: 235, VL SEQ ID NO: 236; heavy chain Kabat position 31 variant of mAb5 (antibody, V domains shown)
# VH: B1 VH with H31I
# VL: B1 VL
# modifications: mAb22 VH Chain; mAb22 VL Chain
# notes: as for B5
# B15: mAb18: anti-IL-11Rα antibody; VH SEQ ID NO: 227, VL SEQ ID NO: 228; heavy chain Kabat position 31 variant of mAb5 (antibody, V domains shown)
# VH: B1 VH with H31E
# VL: B1 VL
# modifications: mAb18 VH Chain; mAb18 VL Chain
# notes: as for B5
# B16: mAb30: anti-IL-11Rα antibody; VH SEQ ID NO: 251, VL SEQ ID NO: 252; heavy chain Kabat position 31 variant of mAb5 (antibody, V domains shown)
# VH: B1 VH with H31T
# VL: B1 VL
# modifications: mAb30 VH Chain; mAb30 VL Chain
# notes: as for B5
# B17: mAb19: anti-IL-11Rα antibody; VH SEQ ID NO: 229, VL SEQ ID NO: 230; heavy chain Kabat position 31 variant of mAb5 (antibody, V domains shown)
# VH: B1 VH with H31F
# VL: B1 VL
# modifications: mAb19 VH Chain; mAb19 VL Chain
# notes: as for B5
# Target: T1, human IL-11Rα
# Experiment: BLI (Octet RED96e), mAb on anti-human constant domain (AHC) biosensors, hIL-11R in solution
# Conditions: not given
# Description: (§1) A further series of antibodies were designed in which the residue at Kabat position 31 of the heavy chain was varied (mAbs 16-32). In this case an alternate biolayer interferometry assay was used to initially rank the antibodies compared to mAb5, the closest relative in sequence to mAbs 16-32. MAbs were loaded onto anti-human constant domain (AHC) biosensors (FortdBio) in 10× kinetics buffer consisting of PBS, 0.1% BSA, 0.02% Tween 20 for 120 s to achieve a spectral shift value of 0.8 to 1.2 nm. Association was carried out in the presence of 2-fold dilution series of hIL-1 IR and was allowed to proceed for 120 s. Dilution series started 10 nM. The dissociation in 10× kinetics buffer for 1200 s. Binding kinetic measurements were taken on an Octet RED96e instrument.
Kd [pM],kon [M⁻¹ s⁻¹],koff [s⁻¹],Molecule
< 30,750000,,B1
< 30,690000,,B2
30,610000,1.8e-05,B3
< 30,720000,,B4

# Target: T2, hIL-1 IR
# Experiment: Alternate biolayer interferometry assay (AHC biosensors) ranking mAbs 16-32 against mAb5
# Assay type: binding
# Conditions: compared to mAb5
# Description: as §1
row,qualitative assessment,Molecule
1,similar,B5
2,similar,B6
3,similar,B7
4,decreased,B8
5,similar,B9
6,decreased,B10
7,similar,B11
8,similar,B12
9,decreased,B13
10,similar,B14
11,decreased,B15
12,decreased,B16
13,similar,B17
